Experimental data as given in patent US20150086580A1.

What was measured:
[1] = target: H77c core-E1E2 HCVpp (HCV E1E2 with HVR1) (Hepatitis C virus genotype 1a, isolate H77C); assay: binding affinity to HCVpp (method not given)
[2] = target: H77c core-E1ΔHVR1E2 HCVpp (HCV E1E2 without HVR1) (Hepatitis C virus genotype 1a, isolate H77C) (UniProt P27958); assay: binding affinity to HCVpp (method not given)

Row | Substance | Kd [1] [pM] | Kd [2] [pM]
1 | CBH-4D (antibody) | 840 | 480
2 | CBH-4G (antibody) | 5430 | 5290
3 | CBH-5 (antibody) | 4000 | 560
4 | CBH-7 (antibody) | 240 | 80
5 | CBH-23 (antibody) | 170 | 90
